Earlier results as cited in US11147890B2, “Stimuli-responsive particles encapsulating a gas and methods of use” (Children's Medical Center Corporation, priority 2017, dated 2021).

Conditions: per gram basis

Which oxygen carrying capacity does the source give for hemoglobin here?
Its oxygen carrying capacity is 0.17 mL/g.
